Source: US20180194839A1 (Novartis, published 2018)

T1: recombinant mouse IL-2 (R&D Systems 402-ML-020/CF) (mouse, UniProt P04351 21-169)
T1 construct: also called mIL-2
T1 sequence (looked up): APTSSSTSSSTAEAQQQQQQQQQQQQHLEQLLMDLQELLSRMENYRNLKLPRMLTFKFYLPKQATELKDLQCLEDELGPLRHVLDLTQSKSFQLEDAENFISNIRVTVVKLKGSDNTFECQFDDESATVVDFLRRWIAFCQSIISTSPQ

T2: recombinant human IL-17A (SEQ ID NO: 76) (human, UniProt Q16552 24-155, limits assumed)
T2 construct: homodimer; also called huIL-17A; rhuIL-17A
T2 sequence: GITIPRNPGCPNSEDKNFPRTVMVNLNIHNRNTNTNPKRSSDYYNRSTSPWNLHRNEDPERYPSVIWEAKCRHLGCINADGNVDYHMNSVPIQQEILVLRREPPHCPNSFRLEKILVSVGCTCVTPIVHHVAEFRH

T3: recombinant human IL-3 (R&D Systems Cat#203-IL/CF) (human, UniProt P08700 20-152)
T3 construct: also called huIL-3
T3 sequence (looked up): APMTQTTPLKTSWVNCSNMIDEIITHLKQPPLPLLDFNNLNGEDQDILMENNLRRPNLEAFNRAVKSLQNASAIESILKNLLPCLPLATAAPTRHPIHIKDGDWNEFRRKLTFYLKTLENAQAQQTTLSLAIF

T4: recombinant human IL-18 (MBL Cat# B003-5) (human, UniProt Q14116 37-193)
T4 construct: also called huIL-18
T4 sequence (looked up): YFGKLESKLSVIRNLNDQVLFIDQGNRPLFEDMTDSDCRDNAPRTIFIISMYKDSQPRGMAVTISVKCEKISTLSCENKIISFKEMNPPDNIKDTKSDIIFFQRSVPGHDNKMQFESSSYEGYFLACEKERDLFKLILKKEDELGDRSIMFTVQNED

T5: recombinant human IL-20 (Novartis) (human, UniProt Q9NYY1 25-176, limits assumed)
T5 construct: also called huIL-20
T5 sequence (looked up): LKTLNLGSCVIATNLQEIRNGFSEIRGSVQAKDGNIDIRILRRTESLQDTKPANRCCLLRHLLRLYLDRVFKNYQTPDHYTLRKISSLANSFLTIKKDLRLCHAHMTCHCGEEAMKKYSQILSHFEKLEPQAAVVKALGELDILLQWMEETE

T6: recombinant rat IL-17A (SEQ ID NO: 85) (rat, UniProt Q61453 18-150)
T6 construct: also called rratIL-17A; rIL-17A
T6 sequence: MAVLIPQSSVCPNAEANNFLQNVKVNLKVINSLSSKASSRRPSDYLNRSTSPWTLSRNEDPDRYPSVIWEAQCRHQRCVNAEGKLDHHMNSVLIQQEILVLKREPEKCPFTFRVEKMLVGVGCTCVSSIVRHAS

T7: recombinant rat IL-4 (R&D Systems Cat#504-RL/CF) (rat, UniProt P20096 25-147, limits assumed)
T7 sequence (looked up): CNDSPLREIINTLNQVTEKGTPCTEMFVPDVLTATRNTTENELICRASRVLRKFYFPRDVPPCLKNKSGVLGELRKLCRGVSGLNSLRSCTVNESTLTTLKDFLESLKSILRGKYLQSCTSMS

T8: recombinant rat IL-6 (R&D Systems Cat#506-RL-010) (rat, UniProt P20607 25-211)
T8 sequence (looked up): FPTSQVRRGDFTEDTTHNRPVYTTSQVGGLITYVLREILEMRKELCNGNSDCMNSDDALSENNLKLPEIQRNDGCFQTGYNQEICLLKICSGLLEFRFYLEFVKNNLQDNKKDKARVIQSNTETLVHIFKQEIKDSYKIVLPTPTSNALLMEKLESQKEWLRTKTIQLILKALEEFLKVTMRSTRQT

T9: recombinant rat TNFα (R&D Systems Cat#510-RT/CF) (rat, UniProt P16599 80-235)
T9 sequence (looked up): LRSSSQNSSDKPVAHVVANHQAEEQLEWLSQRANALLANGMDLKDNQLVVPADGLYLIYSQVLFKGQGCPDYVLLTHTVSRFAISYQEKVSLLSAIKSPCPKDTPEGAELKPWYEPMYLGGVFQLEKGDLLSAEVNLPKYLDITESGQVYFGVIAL


Experiments:
[1] = biological target: T10, recombinant human TNFα (Novartis) (human, UniProt P01375 77-233); assay: ELISA, coated cytokine;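 also: antibodies incubated 3 h at room temperature on cytokine-coated plates, binding read out with alkaline phosphatase-conjugated anti-species IgG secondary antibodies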
T10 construct: also called huTNFα
T10 sequence (P01375 77-233 limits assumed): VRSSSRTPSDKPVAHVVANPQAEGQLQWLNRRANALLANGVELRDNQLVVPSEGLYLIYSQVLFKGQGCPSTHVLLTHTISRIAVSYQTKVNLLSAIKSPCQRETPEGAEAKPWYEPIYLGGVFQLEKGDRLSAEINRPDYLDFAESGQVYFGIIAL

[2] = biological target: T11, recombinant human EGF (Sigma Cat#E9644) (human, UniProt P01133 971-1023); assay: ELISA, coated cytokine;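 also: antibodies incubated 3 h at room temperature on cytokine-coated plates, binding read out with alkaline phosphatase-conjugated anti-species IgG secondary antibodies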
T11 construct: also called huEGF
T11 sequence (P01133 971-1023 limits assumed): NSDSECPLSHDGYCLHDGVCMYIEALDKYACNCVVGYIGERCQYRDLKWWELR

[3] = biological target: T1, recombinant mouse IL-2 (R&D Systems …); assay: ELISA, coated cytokine;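 also: antibodies incubated 3 h at room temperature on cytokine-coated plates, binding read out with alkaline phosphatase-conjugated anti-species IgG secondary antibodies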
[4] = biological target: T2, recombinant human IL-17A (SEQ ID NO: 76); assay: ELISA, coated cytokine, Ab 10 µg/ml;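 also: antibodies incubated 3 h at room temperature on the coated wells, binding detected with alkaline phosphatase-conjugated anti-IgG secondary antibodies matching the species of each test antibody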
[5] = biological target: T12, recombinant human IL-1β (Novartis) (human, UniProt P01584 117-269); assay: ELISA, coated cytokine, Ab 10 µg/ml;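 also: antibodies incubated 3 h at room temperature on the coated wells, binding detected with alkaline phosphatase-conjugated anti-IgG secondary antibodies matching the species of each test antibody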
T12 construct: also called huIL1β

[6] = biological target: T3, recombinant human IL-3 (R&D Systems …); assay: ELISA, coated cytokine, Ab 10 µg/ml
[7] = biological target: T13, recombinant human IL-6 (R&D Systems Cat#206-IL-1010/CF) (human, UniProt P05231 30-212); assay: ELISA, coated cytokine, Ab 10 µg/ml;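 also: antibodies incubated 3 h at room temperature on the coated wells, binding detected with alkaline phosphatase-conjugated anti-IgG secondary antibodies matching the species of each test antibody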
T13 construct: also called huIL-6

[8] = biological target: T4, recombinant human IL-18 (MBL Cat# …); assay: ELISA, coated cytokine, Ab 10 µg/ml
[9] = biological target: T5, recombinant human IL-20 (Novartis); assay: ELISA, coated cytokine, Ab 10 µg/ml;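 also: antibodies incubated 3 h at room temperature on the coated wells, binding detected with alkaline phosphatase-conjugated anti-IgG secondary antibodies matching the species of each test antibody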
[10] = biological target: T10, recombinant human TNFα (Novartis); assay: ELISA, coated cytokine, Ab 10 µg/ml
[11] = biological target: T11, recombinant human EGF (Sigma Cat#E9644); assay: ELISA, coated cytokine, Ab 10 µg/ml
[12] = biological target: T6, recombinant rat IL-17A (SEQ ID NO: 85); assay: ELISA, coated cytokine, Ab 10 µg/ml
[13] = biological target: T7, recombinant rat IL-4 (R&D Systems …); assay: ELISA, coated cytokine, Ab 10 µg/ml
[14] = biological target: T8, recombinant rat IL-6 (R&D Systems …); assay: ELISA, coated cytokine, Ab 10 µg/ml
[15] = biological target: recombinant rat IL-12 (R&D Systems Cat#1760-RL/CF) (rat); assay: ELISA, coated cytokine, Ab 10 µg/ml
[16] = biological target: recombinant rat IL-23 (R&D Systems Cat#3136-RL-010/CF) (rat); assay: ELISA, coated cytokine, Ab 10 µg/ml
[17] = biological target: T9, recombinant rat TNFα (R&D Systems …); assay: ELISA, coated cytokine, Ab 10 µg/ml

| Binder | binding result [1] | binding result [2] | binding result [3] | O.D. [4] | O.D. [5] | O.D. [6] | O.D. [7] | O.D. [8] | O.D. [9] | O.D. [10] | O.D. [11] | O.D. [12] | O.D. [13] | O.D. [14] | O.D. [15] | O.D. [16] | O.D. [17] |
| --- | --- | --- | --- | --- | --- | --- | --- | --- | --- | --- | --- | --- | --- | --- | --- | --- | --- |
| XAB4 (antibody, human IgG1, kappa, V domains shown, also called MB435 N56Q) VH: EVQLVESGGDLVQPGGSLRLSCAASGFTFSSYWMSWVRQAPGKGLEWVANIKQDGSEKYYVDSVKGRFTISRDNAKNSLYLQMNSLRAEDTAVYYCARDRGSLYYWGQGTLVTVSS VL: AIQLTQSPSSLSASVGDRVTITCRPSQGINWELAWYQQKPGKAPKLLIYDASSLEQGVPSRFSGSGSGTDFTLTISSLQPEDFATYYCQQFNSYPLTFGGGTKVEIKR | no binding (tested: 10 µg/ml) | no binding (tested: 10 µg/ml) | no binding (tested: 10 µg/ml) | 3.18 O.D. | 0.015 O.D. | 0.167 O.D. | -0.015 O.D. | -0.001 O.D. | 0.039 O.D. | 0.009 O.D. | 0.126 O.D. | 3.48 O.D. | 0.026 O.D. | 0.021 O.D. | 0.009 O.D. | 0.023 O.D. | 0.02 O.D. |
| XAB1 (antibody, human IgG1, kappa, V domains shown, human IgG1/kappa monoclonal antibody; also called parental XAB1; XAB1 IgG) VH: EVQLVESGGDLVQPGGSLRLSCAASGFTFSSYWMSWVRQAPGKGLEWVANIKQDGSEKYYVDSVKGRFTISRDNAKNSLYLQMNSLRAEDTAVYYCARDRGSLYYWGQGTLVTVSS VL: AIQLTQSPSSLSASVGDRVTITCRPSQGIISALAWYQQKPGKAPKLLIYDASSLENGVPSRFSGSGSGTDFTLTISSLQPEDFATYYCQQFNSYPLTFGGGTKVEIKR | no binding (tested: 10 µg/ml) | no binding (tested: 10 µg/ml) | no binding (tested: 10 µg/ml) | 2.75 O.D. | -0.11 O.D. | -0.049 O.D. | -0.044 O.D. | -0.086 O.D. | 0.335 O.D. | 0.289 O.D. | 0.062 O.D. | 1.2 O.D. | 0.017 O.D. | 0 O.D. | -0.007 O.D. | 0.011 O.D. | 0.003 O.D. |
